Laboratory results published in US20170226216A1.

Biological target: recombinant human BCMA protein conjugated to IgG1 Fc-PE (human) (UniProt Q02223)
Assay: flow cytometry, CAR T cells stained with BCMA-IgG1 Fc-PE

UniProt Q02223, sequence (Q02223 1-54 limits assumed): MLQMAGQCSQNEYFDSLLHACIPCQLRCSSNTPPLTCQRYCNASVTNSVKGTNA

B1: humanized anti-BCMA-10.2 CAR (protein)
chain: DIVLTQSPASLAVSLGERATINCRASESVSVIGAHLIHWYQQKPGQPPKLLIYLASNLETGVPARFSGSGSGTDFTLTISSLQAEDAAIYYCLQSRIFPRTFGQGTKLEIKGSTSGSGKPGSGEGSTKGQVQLVQSGSELKKPGASVKVSCKASGYTFTDYSINWVRQAPGQGLEWMGWINTETREPAYAYDFRGRFVFSLDTSVSTAYLQISSLKAEDTAVYYCARDYSYAMDYWGQGTLVTVSSAAADTGLYICKVELMYPPPYYLGIGNGTQIYVIDPEPCPDSDFLLWILAAVSSGLFFYSFLLTAVSKRGRKKLLYIFKQPFMRPVQTTQEEDGCSCRFPEEEEGGCELRVKFSRSADAPAYQQGQNQLYNELNLGRREEYDVLDKRRGRDPEMGGKPRRKNPQEGLYNELQKDKMAEAYSEIGMKGERRRGKGHDGLYQGLSTATKDTYDALHMQALPPR
- T cells stained with BCMA-IgG1 Fc-PE (CAR surface expression), Donor 1: 86.2
